Results on two substances are retold here after patent US11028172.

For experiment [1], the target named is biotin-labeled human TIGIT protein (human) (UniProt Q495A1). Nature of the experiment: ELISA blocking assay: CD155-hFc coated, biotin-labeled human TIGIT, antibody titrated.
Experiment [2] has as its target human TIGIT-His protein (human) (UniProt Q495A1). The experiment is described as follows: ELISA, plate coated with human TIGIT-His, anti-human IgG-HRP, OD 450nm; unit taken from the axis Log[Conc.]/ng/ml.
Experiment [3] has as its target human TIGIT expressed on cells (human) (UniProt Q495A1). Nature of the experiment: flow cytometry on human TIGIT overexpressing cells, Alexa Fluor 647 anti-human IgG; fitted top of a flat control curve, unit from the y axis.

human TIGIT expressed on cells (human), sequence (Q495A1 22-244): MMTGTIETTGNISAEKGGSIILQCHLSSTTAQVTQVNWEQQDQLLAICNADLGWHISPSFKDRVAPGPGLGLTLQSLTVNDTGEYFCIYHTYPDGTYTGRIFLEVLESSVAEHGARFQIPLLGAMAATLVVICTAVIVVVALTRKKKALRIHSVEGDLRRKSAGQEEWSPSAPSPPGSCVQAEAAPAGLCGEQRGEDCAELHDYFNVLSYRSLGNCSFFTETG
human TIGIT-His protein (human), sequence (Q495A1 22-141 limits assumed): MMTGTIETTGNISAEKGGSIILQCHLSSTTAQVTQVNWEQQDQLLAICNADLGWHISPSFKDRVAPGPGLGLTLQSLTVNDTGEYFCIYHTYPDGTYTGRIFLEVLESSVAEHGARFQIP
biotin-labeled human TIGIT protein (human), sequence (Q495A1 22-141 limits assumed): as above

The substance Tiragolumab (RG6058, Roche) (antibody) yielded an IC50 in experiment [1] of 0.531 µg/mL. In addition, the EC50 in experiment [2] came to 0.00659 µg/mL.

On to total human IgG (antibody), for which the Top in experiment [3] worked out at 110 MFI.
